Source: US20260061032A1

Legend:
hCD73 (human) [1] = molecular target: hCD73 (human) (UniProt P21589); assay: cell-based or functional assay
[2] = molecular target: membrane-bound human CD73 (human) (UniProt P21589); assay: cell-based or functional assay
cyCD73 = assay: SPR, Biacore T200; binder captured on CM5 chip by human antibody capture kit, CD73 as analyte
hCD73 (human) [3] = molecular target: hCD73 (human) (UniProt P21589); assay: as above
[4] = molecular target: IL-2Rβγ on HEK-BLUE IL-2 reporter cells (UniProt P14784); assay: cell-based or functional assay
[5] = molecular target: hIL-2Rαβγ on CTLL-2 cells (human) (UniProt P01589); assay: cell-based or functional assay
hIL-2Rα (human) = hIL-2Rα (human) (UniProt P01589); assay: SPR, Biacore T200; hIL-2Rα on CM5 chip through His capture kit, binder as analyte
hIL-2Rβ (human) = hIL-2Rβ (human) (UniProt P14784); assay: SPR, Biacore T200; hIL-2Rβ as analyte; three-step format as the filing describes it
hIL-2Rβγ (human) = hIL-2Rβγ (human) (UniProt P14784); assay: SPR, Biacore T200; hIL-2Rβγ as analyte, single cycle kinetics; three-step format as the filing describes it
Chain of hIL-2Rβγ (human) (P14784 27-239, chain 1 of 2): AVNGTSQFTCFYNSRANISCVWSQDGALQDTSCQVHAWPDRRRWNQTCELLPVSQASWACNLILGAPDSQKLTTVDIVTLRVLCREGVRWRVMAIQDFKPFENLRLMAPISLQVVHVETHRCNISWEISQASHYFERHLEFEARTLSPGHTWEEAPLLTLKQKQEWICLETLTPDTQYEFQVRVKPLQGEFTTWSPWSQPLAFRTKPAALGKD
Chain of hIL-2Rβγ (human) (P31785 23-254, chain 2 of 2, further chain): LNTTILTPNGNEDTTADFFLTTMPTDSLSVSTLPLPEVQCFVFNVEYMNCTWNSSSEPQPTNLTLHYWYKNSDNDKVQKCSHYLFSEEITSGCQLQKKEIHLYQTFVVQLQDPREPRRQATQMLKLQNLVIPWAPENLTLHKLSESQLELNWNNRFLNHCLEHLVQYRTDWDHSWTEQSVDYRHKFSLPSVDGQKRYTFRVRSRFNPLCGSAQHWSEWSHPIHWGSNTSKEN

Chain of hCD73 (human) (P21589 27-549 limits assumed): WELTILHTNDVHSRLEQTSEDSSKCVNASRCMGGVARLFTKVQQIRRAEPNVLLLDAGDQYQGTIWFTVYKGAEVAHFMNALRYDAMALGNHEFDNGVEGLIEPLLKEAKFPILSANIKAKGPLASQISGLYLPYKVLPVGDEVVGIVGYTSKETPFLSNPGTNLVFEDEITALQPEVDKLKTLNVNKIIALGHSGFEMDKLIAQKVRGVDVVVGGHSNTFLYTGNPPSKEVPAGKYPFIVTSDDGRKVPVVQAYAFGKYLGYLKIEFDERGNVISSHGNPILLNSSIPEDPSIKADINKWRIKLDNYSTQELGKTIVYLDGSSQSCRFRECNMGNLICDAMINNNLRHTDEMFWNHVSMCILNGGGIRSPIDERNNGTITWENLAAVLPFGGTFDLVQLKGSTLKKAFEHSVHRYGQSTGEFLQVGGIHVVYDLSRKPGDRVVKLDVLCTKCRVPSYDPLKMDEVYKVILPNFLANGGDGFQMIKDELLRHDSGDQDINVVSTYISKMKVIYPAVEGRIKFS
Chain of membrane-bound human CD73 (human) (P21589 27-549 limits assumed): as above
Chain of hIL-2Rβ (human) (P14784 27-239): as the sequence (P14784 27-239, chain 1 of 2) above
Chain of IL-2Rβγ on HEK-BLUE IL-2 reporter cells (P14784 27-551, chain 1 of 2): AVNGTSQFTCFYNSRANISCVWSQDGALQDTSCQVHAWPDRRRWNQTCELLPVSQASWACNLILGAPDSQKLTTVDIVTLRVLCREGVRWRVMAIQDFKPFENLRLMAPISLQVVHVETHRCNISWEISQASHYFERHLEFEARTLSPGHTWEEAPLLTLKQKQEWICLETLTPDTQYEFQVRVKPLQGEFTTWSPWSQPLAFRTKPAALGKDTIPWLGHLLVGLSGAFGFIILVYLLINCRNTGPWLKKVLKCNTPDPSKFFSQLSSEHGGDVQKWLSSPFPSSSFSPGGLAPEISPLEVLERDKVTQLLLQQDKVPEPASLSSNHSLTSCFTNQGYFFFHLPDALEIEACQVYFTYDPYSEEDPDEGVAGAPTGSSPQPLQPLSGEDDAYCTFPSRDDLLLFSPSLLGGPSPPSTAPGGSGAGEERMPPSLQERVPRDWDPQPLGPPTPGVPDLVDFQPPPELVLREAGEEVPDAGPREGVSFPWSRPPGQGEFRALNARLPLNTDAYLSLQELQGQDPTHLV
Chain of IL-2Rβγ on HEK-BLUE IL-2 reporter cells (P31785 23-369, chain 2 of 2, further chain): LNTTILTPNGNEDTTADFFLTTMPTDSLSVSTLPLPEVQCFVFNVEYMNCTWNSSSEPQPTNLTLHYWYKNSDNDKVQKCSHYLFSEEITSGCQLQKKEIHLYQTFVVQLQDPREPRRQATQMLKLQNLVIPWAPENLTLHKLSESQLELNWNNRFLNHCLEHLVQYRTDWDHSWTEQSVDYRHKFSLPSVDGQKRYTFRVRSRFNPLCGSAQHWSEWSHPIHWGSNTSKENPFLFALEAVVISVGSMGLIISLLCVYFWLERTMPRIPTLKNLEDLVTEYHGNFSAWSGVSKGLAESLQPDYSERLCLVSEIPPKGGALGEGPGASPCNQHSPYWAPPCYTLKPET
Chain of hIL-2Rα (human) (P01589 22-213): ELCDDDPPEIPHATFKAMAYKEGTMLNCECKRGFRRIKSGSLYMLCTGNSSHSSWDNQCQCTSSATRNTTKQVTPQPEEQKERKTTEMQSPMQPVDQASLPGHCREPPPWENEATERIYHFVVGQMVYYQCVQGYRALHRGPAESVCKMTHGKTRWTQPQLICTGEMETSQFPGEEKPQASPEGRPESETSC
Chain of hIL-2Rαβγ on CTLL-2 cells (human) (P01589 22-272, chain 1 of 3): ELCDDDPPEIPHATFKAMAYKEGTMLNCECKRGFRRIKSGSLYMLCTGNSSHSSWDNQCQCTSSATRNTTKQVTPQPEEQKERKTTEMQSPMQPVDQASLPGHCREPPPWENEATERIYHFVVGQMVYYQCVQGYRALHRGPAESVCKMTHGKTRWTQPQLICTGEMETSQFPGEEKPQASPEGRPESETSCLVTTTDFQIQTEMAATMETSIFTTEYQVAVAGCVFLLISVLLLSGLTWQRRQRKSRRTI
Chain of hIL-2Rαβγ on CTLL-2 cells (human) (P14784 27-551, chain 2 of 3, further chain): as the sequence (P14784 27-551, chain 1 of 2) above
Chain of hIL-2Rαβγ on CTLL-2 cells (human) (P31785 23-369, chain 3 of 3, further chain): as the sequence (P31785 23-369, chain 2 of 2, further chain) above

| IC50, inhibition of soluble CD73 enzyme activity (AMP-Glo assay, recombinant human CD73) (hCD73 (human) [1]) | IC50, inhibition of membrane-bound CD73 enzyme activity on MDA-MB-231 cells (adenosine assay) [2] | Kd (cyCD73) | Kd (hCD73 (human) [3]) | EC50, SEAP reporter (JAK-STAT pathway activation) in HEK-BLUE IL-2 reporter cells [4] | EC50, CTLL-2 cell proliferation (WST-1 absorbance) [5] | Kd (hIL-2Rα (human)) | Kd (hIL-2Rβ (human)) | Kd (hIL-2Rβγ (human)) | Substance |
| --- | --- | --- | --- | --- | --- | --- | --- | --- | --- |
| 0.03 nM | 1.47 nM | 0.349 nM | 0.101 nM | – | – | – | – | – | Oleclumab (Astrazeneca), produced on order from Ybiologics, Inc. (antibody) |
| – | – | – | – | 0.0103 nM | 0.08 nM | 49.6 nM | 2080 nM | 0.01 nM | Aldesleukin (trade name: PROLEUKIN, Novartis) (ligand) |
